Measured values published in patent publication US20260242478A1 (published 2026).
Where no end group is shown, it is not given here.

What follows are binders tested against T1, Anti-CD28 Fab (SEQ ID NOs: 696, 697) (assay: phage binding ELISA; clonal phage on plate-captured biotinylated anti-CD28 Fab).
T1 construct: In the phage ELISA the Fab was biotinylated and captured on neutravidin coated plates
T1 sequence (VH, as listed by the source, chain 1 of 2): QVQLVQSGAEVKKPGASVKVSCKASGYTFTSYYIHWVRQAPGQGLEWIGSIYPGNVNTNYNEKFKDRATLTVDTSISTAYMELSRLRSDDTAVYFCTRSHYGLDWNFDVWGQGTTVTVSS
T1 sequence (VL, as listed by the source, chain 2 of 2): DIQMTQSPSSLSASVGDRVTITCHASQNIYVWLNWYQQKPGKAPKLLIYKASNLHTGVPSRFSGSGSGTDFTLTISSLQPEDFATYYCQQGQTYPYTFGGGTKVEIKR
Description: (§1) Clonal phage were harvested as crude supematants and screened via standard ELISAs. […] Prior to the addition of clonal phage, wells were incubated with blocking buffer and CD28 antigen or blocking buffer alone. Without washing or aspirating, clonal phage supematants were then added to the wells and incubated for a short time. Wells were then washed followed by detection of bound phage using a horse radish conjugated anti-M13 antibody.

Row | Binder | Anti-CD28 Fab (SEQ ID NOs: 696, 697) signal
1 | TCSAGATYVWPQCF [Phage-1403 (Peptide-92 library clone)] | 2.05
2 | GCAAGATYPWPSCL [Phage-1404 (Peptide-92 library clone)] | 2.05
3 | TCAAGATYKWPACL [Phage-1405 (Peptide-92 library clone)] | 2.05
4 | MCSAGAMYPWPTCL [Phage-1406 (Peptide-92 library clone)] | 2.04
5 | TCAAGASYAWPWCL [Phage-1407 (Peptide-92 library clone)] | 2.03
6 | TCSAGASWAWPWCF [Phage-1408 (Peptide-92 library clone)] | 2.03
7 | TCAAGAMWHWPVCL [Phage-1409 (Peptide-92 library clone)] | 2.03
8 | TCSAGFHYEWPRCL [Phage-1410 (Peptide-92 library clone)] | 2.02
9 | LCAAGFKYPWPLCL [Phage-1411 (Peptide-92 library clone)] | 2.02
10 | LCEEFADYPWPMCL [Phage-1412 (Peptide-92 library clone)] | 2.01
11 | TCAAGATYSWPMCF [Phage-1413 (Peptide-92 library clone)] | 2
12 | LCAAGASYPWPTCL [Phage-1414 (Peptide-92 library clone)] | 2
13 | HCAAGAHYPWPACL [Phage-1415 (Peptide-92 library clone)] | 2
14 | TCAAGANYPWPYCL [Phage-1416 (Peptide-92 library clone)] | 1.99

These binders were tested against T2, Anti-CD28 Fab (SEQ ID NOs: 696, 697) (biotinylated (site not given)) (assay: phage binding ELISA on captured anti-CD28 Fab; competitor: CD28 antigen added to the wells before the phage).
T2 sequence (VH, as listed by the source, chain 1 of 2): as the sequence (VH, as listed by the source, chain 1 of 2) above
T2 sequence (VL, as listed by the source, chain 2 of 2): as the sequence (VL, as listed by the source, chain 2 of 2) above

Row | Binder | Anti-CD28 Fab signal in the presence of CD28
15 | WCKPGAPYKWPPCF [Phage-1389] | 0.07
16 | TCAAGAMYTWPLCF [Phage-1390] | 0.09
17 | TCSAGATWTWPQCL [Phage-1391] | 0.08
18 | LCAAGATYAWPLCL [Phage-1392] | 0.07
19 | MCAEFFNYPWPLCL (cysteine pairing not given here; also: fused to phage pIII protein) [Phage-1393] | 0.07
20 | TCAAGATYEWPACL [Phage-1394] | 0.07
21 | TCSAGAYYTWPYCF [Phage-1395] | 0.08
22 | TCAAVFSYGWPECF [Phage-1396] | 0.07
23 | SCSAGAMYTWPTCL [Phage-1397] | 0.06
24 | QCAAGASYPWPMCL [Phage-1398] | 0.08
25 | YCAAGATYPWPLCL [Phage-1399] | 0.08
26 | TCAAGATYAWPECL [Phage-1400] | 0.11
27 | TCSEGATYTWPWCF [Phage-1401] | 0.06
28 | TCAAGAHYLWPWCM [Phage-1402] | 0.08

What follows are binders tested against Anti-CD28 Fab (SEQ ID NOs: 696, 697) (assay: phage binding ELISA; Fab-coated wells pre-incubated with CD28 antigen as competitor, anti-M13 HRP detection;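 further: crude clonal phage supernatants added without washing after the CD28 pre-incubation, with wells given blocking buffer only (no CD28) as the reference, bound phage read after washing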).
Target sequence in this assay (VH, as listed by the source, chain 1 of 2): as the sequence (VH, as listed by the source, chain 1 of 2) above
Target sequence in this assay (VL, as listed by the source, chain 2 of 2): as the sequence (VL, as listed by the source, chain 2 of 2) above
Description: (§2) Clonal phage were harvested as crude supematants and screened via standard ELISAs. […] Prior to the addition of clonal phage, wells were incubated with blocking buffer and CD28 antigen or blocking buffer alone. Without washing or aspirating, clonal phage supematants were then added to the wells and incubated for a short time. Wells were then washed followed by detection of bound phage using a horse radish conjugated anti-M13 antibody. Clonal phage of interest were then sent for sequence analysis.

Row | Binder | Anti-CD28 Fab signal in the presence of CD28
29 | TCAAGAHYSWPACF [Phage-1370 peptide (Peptide-92 library sequence, SEQ ID NO: 1666)] | 0.07
30 | TCAAGATYPWPSCL [Phage-1371 peptide (Peptide-92 library sequence, SEQ ID NO: 1667)] | 0.06
31 | RCAAGASYPWPPCL [Phage-1372 peptide (Peptide-92 library sequence, SEQ ID NO: 1668)] | 0.05
32 | TCKAGATYLWPFCL [Phage-1373 peptide (Peptide-92 library sequence, SEQ ID NO: 1669)] | 0.08

Target: Anti-CD28 Fab (SEQ ID NOs: 696, 697)
Assay: as above
Remark: another data set of the same source
Target sequence in this assay (VH, as listed by the source, chain 1 of 2): as the sequence (VH, as listed by the source, chain 1 of 2) above
Target sequence in this assay (VL, as listed by the source, chain 2 of 2): as the sequence (VL, as listed by the source, chain 2 of 2) above
Description: as §2

Row | Binder | Anti-CD28 Fab signal in the presence of CD28
33 | MCAAGATYPWPLCL (cysteine pairing not given here; also: fused to phage pIII protein) [Phage-1417] | 0.07
34 | TCAAGATYSWPWCF [Phage-1418] | 0.07
35 | TCAAGAHYTWPECF [Phage-1419] | 0.07
36 | SCAAVFSYSWPMCF [Phage-1420] | 0.06
37 | SCAAGATYSWPMCL [Phage-1421] | 0.09
38 | LCAEFFNYPWPLCL [Phage-1422] | 0.06
39 | QCSAGAAWPWPFCL [Phage-1423] | 0.08
40 | MCAAGAHYTWPTCL (cysteine pairing not given here; also: fused to phage pIII protein) [Phage-1424] | 0.07
41 | TCSAGATYEWPWCM [Phage-1425] | 0.07
42 | MCSAGANYPWPWCL [Phage-1426] | 0.08
43 | TCAAGATYEWPYCF [Phage-1427] | 0.06
44 | WCAAVFSYTWSPCL [Phage-1428] | 0.07
45 | TCAAGAAYTWPACF [Phage-1429] | 0.06
46 | TCAAGATYEWPTCL [Phage-1430] | 0.08

Each binder was assayed against T2, Anti-CD28 Fab (SEQ ID NOs: 696, 697) (assay: phage binding ELISA; biotinylated anti-CD28 Fab on neutravidin plate, clonal phage detected with anti-M13-HRP;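 further: crude clonal phage supernatants added briefly to wells preincubated in blocking buffer with or without CD28 antigen, then washed before detection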).
Description: as §2

Row | Binder | Anti-CD28 Fab (SEQ ID NOs: 696, 697) signal
47 | WCKPGAPYKWPPCF [Phage-1389] | 2.14
48 | TCAAGAMYTWPLCF [Phage-1390] | 2.14
49 | TCSAGATWTWPQCL [Phage-1391] | 2.14
50 | LCAAGATYAWPLCL [Phage-1392] | 2.13
51 | MCAEFFNYPWPLCL (cysteine pairing not given here; also: fused to phage pIII protein) [Phage-1393] | 2.11
52 | TCAAGATYEWPACL [Phage-1394] | 2.09
53 | TCSAGAYYTWPYCF [Phage-1395] | 2.09
54 | TCAAVFSYGWPECF [Phage-1396] | 2.09
55 | SCSAGAMYTWPTCL [Phage-1397] | 2.09
56 | QCAAGASYPWPMCL [Phage-1398] | 2.08
57 | YCAAGATYPWPLCL [Phage-1399] | 2.08
58 | TCAAGATYAWPECL [Phage-1400] | 2.08
59 | TCSEGATYTWPWCF [Phage-1401] | 2.05
60 | TCAAGAHYLWPWCM [Phage-1402] | 2.05

These binders were tested against T1, Anti-CD28 Fab (SEQ ID NOs: 696, 697) (assay: phage binding ELISA; clonal phage on plate-captured anti-CD28 Fab pre-incubated with CD28 antigen (competitor)).
Description: as §2

Row | Binder | Anti-CD28 Fab signal in the presence of CD28
61 | TCSAGATYVWPQCF [Phage-1403 (Peptide-92 library clone)] | 0.07
62 | GCAAGATYPWPSCL [Phage-1404 (Peptide-92 library clone)] | 0.06
63 | TCAAGATYKWPACL [Phage-1405 (Peptide-92 library clone)] | 0.09
64 | MCSAGAMYPWPTCL [Phage-1406 (Peptide-92 library clone)] | 0.08
65 | TCAAGASYAWPWCL [Phage-1407 (Peptide-92 library clone)] | 0.08
66 | TCSAGASWAWPWCF [Phage-1408 (Peptide-92 library clone)] | 0.08
67 | TCAAGAMWHWPVCL [Phage-1409 (Peptide-92 library clone)] | 0.09
68 | TCSAGFHYEWPRCL [Phage-1410 (Peptide-92 library clone)] | 0.05
69 | LCAAGFKYPWPLCL [Phage-1411 (Peptide-92 library clone)] | 0.07
70 | LCEEFADYPWPMCL [Phage-1412 (Peptide-92 library clone)] | 0.06
71 | TCAAGATYSWPMCF [Phage-1413 (Peptide-92 library clone)] | 0.07
72 | LCAAGASYPWPTCL [Phage-1414 (Peptide-92 library clone)] | 0.1
73 | HCAAGAHYPWPACL [Phage-1415 (Peptide-92 library clone)] | 0.12
74 | TCAAGANYPWPYCL [Phage-1416 (Peptide-92 library clone)] | 0.14

These binders were tested against Anti-CD28 Fab (SEQ ID NOs: 696, 697) (assay: phage binding ELISA; biotinylated anti-CD28 Fab on neutravidin plate, clonal phage supernatant, anti-M13 HRP detection;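 further: wells pretreated with blocking buffer, either plus or minus CD28 antigen, then given crude phage supernatant briefly without washing in between, then washed before anti-M13 HRP readout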).
Target sequence in this assay (VH, as listed by the source, chain 1 of 2): as the sequence (VH, as listed by the source, chain 1 of 2) above
Target sequence in this assay (VL, as listed by the source, chain 2 of 2): as the sequence (VL, as listed by the source, chain 2 of 2) above
Description: as §1

Row | Binder | Anti-CD28 Fab (SEQ ID NOs: 696, 697) signal
75 | TCAAGAHYSWPACF [Phage-1370 peptide (Peptide-92 library sequence, SEQ ID NO: 1666)] | 2.25
76 | TCAAGATYPWPSCL [Phage-1371 peptide (Peptide-92 library sequence, SEQ ID NO: 1667)] | 2.25
77 | RCAAGASYPWPPCL [Phage-1372 peptide (Peptide-92 library sequence, SEQ ID NO: 1668)] | 2.25
78 | TCKAGATYLWPFCL [Phage-1373 peptide (Peptide-92 library sequence, SEQ ID NO: 1669)] | 2.23

Target: Anti-CD28 Fab (SEQ ID NOs: 696, 697)
Assay: as above
Remark: another data set of the same source
Target sequence in this assay (VH, as listed by the source, chain 1 of 2): as the sequence (VH, as listed by the source, chain 1 of 2) above
Target sequence in this assay (VL, as listed by the source, chain 2 of 2): as the sequence (VL, as listed by the source, chain 2 of 2) above
Description: as §1

Row | Binder | Anti-CD28 Fab (SEQ ID NOs: 696, 697) signal
79 | MCAAGATYPWPLCL (cysteine pairing not given here; also: fused to phage pIII protein) [Phage-1417] | 1.99
80 | TCAAGATYSWPWCF [Phage-1418] | 1.99
81 | TCAAGAHYTWPECF [Phage-1419] | 1.99
82 | SCAAVFSYSWPMCF [Phage-1420] | 1.99
83 | SCAAGATYSWPMCL [Phage-1421] | 1.99
84 | LCAEFFNYPWPLCL [Phage-1422] | 1.98
85 | QCSAGAAWPWPFCL [Phage-1423] | 1.97
86 | MCAAGAHYTWPTCL (cysteine pairing not given here; also: fused to phage pIII protein) [Phage-1424] | 1.97
87 | TCSAGATYEWPWCM [Phage-1425] | 1.97
88 | MCSAGANYPWPWCL [Phage-1426] | 1.97
89 | TCAAGATYEWPYCF [Phage-1427] | 1.96
90 | WCAAVFSYTWSPCL [Phage-1428] | 1.96
91 | TCAAGAAYTWPACF [Phage-1429] | 1.96
92 | TCAAGATYEWPTCL [Phage-1430] | 1.96
